B1: TFE3 (parent)
chain: FHLGLEDILMEEEEGVVGGLSGGA
B2: LOC100129726 (parent)
chain: AKAADSPTRNDLESGLGHFSLRVH

Variants of: B1
Experiment: protein stability index of a GFP-peptide fusion (GPS, HEK-293T) (PSI 1-6); higher = more stable
Conditions: c terminus: a fixed tail appended
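Also: lentivirally expressed fusions sorted by FACS into six bins by GFP to DsRed ratio, PSI derived from sequencing read proportions per bin multiplied by bin number.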

| Variant | protein stability index |
| --- | --- |
| FHLGLEDILMEEEEGVVGWLSGGA | 2.18 |
| FHLGLEDILMEEEEGVVGVLSGGA | 3.22 |
| FHLGLEDILMEEEEGVVGSLSGGA | 3.28 |
| FHLGLEDILMEEEEGVVGYLSGGA | 2.67 |
| FHLGLEDILMEEEEGVVGTLSGGA | 3.48 |
| FHLGLEDILMEEEEGVVGGPSGGA | 3.79 |
| FHLGLEDILMEEEEGVVGGRSGGA | 3.99 |
| FHLGLEDILMEEEEGVVGGQSGGA | 4.47 |
| FHLGLEDILMEEEEGVVGGCSGGA | 3.91 |
| FHLGLEDILMEEEEGVVGGWSGGA | 3.02 |
| FHLGLEDILMEEEEGVVGGKSGGA | 4.55 |
| FHLGLEDILMEEEEGVVGGDSGGA | 4.92 |
| FHLGLEDILMEEEEGVVGGYSGGA | 3.41 |
| FHLGLEDILMEEEEGVVGGMSGGA | 3.19 |
| FHLGLEDILMEEEEGVVGGGSGGA | 3.98 |
| FHLGLEDILMEEEEGVVGGTSGGA | 4.11 |
| FHLGLEDILMEEEEGVVGGVSGGA | 4.69 |
| FHLGLEDILMEEEEGVVGGASGGA | 4.74 |
| FHLGLEDILMEEEEGVVGGNSGGA | 4.59 |
| FHLGLEDILMEEEEGVVGGISGGA | 4.08 |
| FHLGLEDILMEEEEGVVGGHSGGA | 4.24 |
| FHLGLEDILMEEEEGVVGGESGGA | 4.99 |
| FHLGLEDILMEEEEGVVGGFSGGA | 4.09 |
| FHLGLEDILMEEEEGVVGGSSGGA | 4.52 |
| FHLGLEDILMEEEEGVVGGLNGGA | 3.6 |

| Variant | protein stability index |
| --- | --- |
| FHLGLEDILMEEEEGVVGGLPGGA | 3.35 |
| FHLGLEDILMEEEEGVVGGLKGGA | 3.48 |
| FHLGLEDILMEEEEGVVGGLMGGA | 3.54 |
| FHLGLEDILMEEEEGVVGGLYGGA | 2.77 |
| FHLGLEDILMEEEEGVVGGLCGGA | 3.48 |
| FHLGLEDILMEEEEGVVGGLDGGA | 3.95 |
| FHLGLEDILMEEEEGVVGGLQGGA | 4.07 |
| FHLGLEDILMEEEEGVVGGLWGGA | 2.3 |
| FHLGLEDILMEEEEGVVGGLGGGA | 4.07 |
| FHLGLEDILMEEEEGVVGGLAGGA | 3.9 |
| FHLGLEDILMEEEEGVVGGLVGGA | 3.81 |
| FHLGLEDILMEEEEGVVGGLRGGA | 3.7 |
| FHLGLEDILMEEEEGVVGGLIGGA | 3.27 |
| FHLGLEDILMEEEEGVVGGLHGGA | 3.44 |
| FHLGLEDILMEEEEGVVGGLTGGA | 3.54 |
| FHLGLEDILMEEEEGVVGGLLGGA | 3.01 |
| FHLGLEDILMEEEEGVVGGLEGGA | 4.65 |
| FHLGLEDILMEEEEGVVGGLSGGM | 3.12 |
| FHLGLEDILMEEEEGVVGGLSGGS | 3.82 |
| FHLGLEDILMEEEEGVVGGLSGGP | 3.07 |
| FHLGLEDILMEEEEGVVGGLSGGR | 3.86 |
| FHLGLEDILMEEEEGVVGGLSGGY | 2.68 |
| FHLGLEDILMEEEEGVVGGLSGGN | 3.65 |
| FHLGLEDILMEEEEGVVGGLSGGT | 3.52 |
| FHLGLEDILMEEEEGVVGGLSGGD | 4.17 |

| Variant | protein stability index |
| --- | --- |
| FHLGLEDILMEEEEGVVGGLSGGF | 2.39 |
| FHLGLEDILMEEEEGVVGGLSGGL | 2.94 |
| FHLGLEDILMEEEEGVVGGLSGGE | 3.9 |
| FHLGLEDILMEEEEGVVGGLSGGH | 3.25 |
| FHLGLEDILMEEEEGVVGGLSGGV | 3.74 |
| FHLGLEDILMEEEEGVVGGLSGGG | 4.32 |
| FHLGLEDILMEEEEGVVGGLSGGI | 2.66 |
| FHLGLEDILMEEEEGVVGGLSGGQ | 4.24 |
| FHLGLEDILMEEEEGVVGGLSGGW | 1.75 |
| FHLGLEDILMEEEEGVVGGLSGGC | 3.73 |
| FHLGLEDILMEEEEGVVGGLSGGK | 3.98 |
| FHLGLEDILMEEEEGVVGGLSGVA | 3.98 |
| FHLGLEDILMEEEEGVVGGLSGSA | 3.52 |
| FHLGLEDILMEEEEGVVGGLSGWA | 2.15 |
| FHLGLEDILMEEEEGVVGGLSGIA | 3.17 |
| FHLGLEDILMEEEEGVVGGLSGPA | 4 |
| FHLGLEDILMEEEEGVVGGLSGDA | 4.04 |
| FHLGLEDILMEEEEGVVGGLSGNA | 3.96 |
| FHLGLEDILMEEEEGVVGGLSGKA | 3.89 |
| FHLGLEDILMEEEEGVVGGLSGTA | 3.56 |
| FHLGLEDILMEEEEGVVGGLSGQA | 3.89 |
| FHLGLEDILMEEEEGVVGGLSGLA | 3.58 |
| FHLGLEDILMEEEEGVVGGLSGHA | 3.43 |
| FHLGLEDILMEEEEGVVGGLSGEA | 4.87 |
| FHLGLEDILMEEEEGVVGGLSGCA | 3.21 |

| Variant | protein stability index |
| --- | --- |
| FHLGLEDILMEEEEGVVGGLSGRA | 3.29 |
| FHLGLEDILMEEEEGVVGGLSGMA | 3.19 |
| FHLGLEDILMEEEEGVVGGLSGAA | 3.37 |
| FHLGLEDILMEEEEGVVGGLSGFA | 2.7 |
| FHLGLEDILMEEEEGVVGGLSQGA | 3.67 |
| FHLGLEDILMEEEEGVVGGLSLGA | 3.31 |
| FHLGLEDILMEEEEGVVGGLSEGA | 4.01 |
| FHLGLEDILMEEEEGVVGGLSYGA | 2.28 |
| FHLGLEDILMEEEEGVVGGLSMGA | 3.59 |
| FHLGLEDILMEEEEGVVGGLSWGA | 2.85 |
| FHLGLEDILMEEEEGVVGGLSIGA | 3.19 |
| FHLGLEDILMEEEEGVVGGLSTGA | 4.26 |
| FHLGLEDILMEEEEGVVGGLSDGA | 3.5 |
| FHLGLEDILMEEEEGVVGGLSHGA | 3.8 |
| FHLGLEDILMEEEEGVVGGLSKGA | 4.05 |
| FHLGLEDILMEEEEGVVGGLSNGA | 3.72 |
| FHLGLEDILMEEEEGVVGGLSAGA | 3.81 |
| FHLGLEDILMEEEEGVVGGLSVGA | 3.9 |
| FHLGLEDILMEEEEGVVGGLSSGA | 3.57 |
| FHLGLEDILMEEEEGVVGGLSFGA | 3.34 |
| FHLGLEDILMEEEEGVVGGLSCGA | 3.3 |
| FHLGLEDILMEEEEGVVGGLSRGA | 3.39 |
| FHLGLEDILMEEEEGVVGGLSPGA | 3.64 |

Variants of: B2
Experiment: as above
Conditions: c terminus: a fixed tail appended

| Variant | protein stability index |
| --- | --- |
| AMAADSPTRNDLESGLGHFSLRVH | 2.78 |
| AHAADSPTRNDLESGLGHFSLRVH | 3.38 |
| AVAADSPTRNDLESGLGHFSLRVH | 3.18 |
| AGAADSPTRNDLESGLGHFSLRVH | 2.71 |
| AQAADSPTRNDLESGLGHFSLRVH | 2.69 |
| AAAADSPTRNDLESGLGHFSLRVH | 3.68 |
| AWAADSPTRNDLESGLGHFSLRVH | 1.66 |
| ADAADSPTRNDLESGLGHFSLRVH | 3.55 |
| ALAADSPTRNDLESGLGHFSLRVH | 3.03 |
| ACAADSPTRNDLESGLGHFSLRVH | 2.05 |
| APAADSPTRNDLESGLGHFSLRVH | 3.23 |
| AYAADSPTRNDLESGLGHFSLRVH | 2.49 |
| AFAADSPTRNDLESGLGHFSLRVH | 2.42 |
| AEAADSPTRNDLESGLGHFSLRVH | 3.98 |
| AIAADSPTRNDLESGLGHFSLRVH | 3.21 |
| ANAADSPTRNDLESGLGHFSLRVH | 2.88 |
| ARAADSPTRNDLESGLGHFSLRVH | 3.38 |
| ASAADSPTRNDLESGLGHFSLRVH | 2.99 |
| ATAADSPTRNDLESGLGHFSLRVH | 3.27 |
| YKAADSPTRNDLESGLGHFSLRVH | 3.34 |
| WKAADSPTRNDLESGLGHFSLRVH | 2.33 |
| DKAADSPTRNDLESGLGHFSLRVH | 3.88 |
| CKAADSPTRNDLESGLGHFSLRVH | 2.1 |

| Variant | protein stability index |
| --- | --- |
| LKAADSPTRNDLESGLGHFSLRVH | 2.9 |
| EKAADSPTRNDLESGLGHFSLRVH | 3.47 |
| PKAADSPTRNDLESGLGHFSLRVH | 3.17 |
| KKAADSPTRNDLESGLGHFSLRVH | 3.34 |
| FKAADSPTRNDLESGLGHFSLRVH | 2.6 |
| TKAADSPTRNDLESGLGHFSLRVH | 3.25 |
| MKAADSPTRNDLESGLGHFSLRVH | 2.74 |
| SKAADSPTRNDLESGLGHFSLRVH | 3.36 |
| VKAADSPTRNDLESGLGHFSLRVH | 3.39 |
| QKAADSPTRNDLESGLGHFSLRVH | 3.38 |
| HKAADSPTRNDLESGLGHFSLRVH | 3.27 |
| NKAADSPTRNDLESGLGHFSLRVH | 3.25 |
| RKAADSPTRNDLESGLGHFSLRVH | 2.74 |
| IKAADSPTRNDLESGLGHFSLRVH | 2.48 |
| GKAADSPTRNDLESGLGHFSLRVH | 3.1 |
| AKADDSPTRNDLESGLGHFSLRVH | 3.87 |
| AKAKDSPTRNDLESGLGHFSLRVH | 3.09 |
| AKAYDSPTRNDLESGLGHFSLRVH | 2.42 |
| AKAMDSPTRNDLESGLGHFSLRVH | 2.54 |
| AKATDSPTRNDLESGLGHFSLRVH | 3.7 |
| AKAEDSPTRNDLESGLGHFSLRVH | 4.12 |
| AKANDSPTRNDLESGLGHFSLRVH | 3.04 |
| AKALDSPTRNDLESGLGHFSLRVH | 2.95 |

| Variant | protein stability index |
| --- | --- |
| AKAQDSPTRNDLESGLGHFSLRVH | 3.15 |
| AKARDSPTRNDLESGLGHFSLRVH | 2.81 |
| AKAVDSPTRNDLESGLGHFSLRVH | 2.4 |
| AKACDSPTRNDLESGLGHFSLRVH | 3.05 |
| AKAIDSPTRNDLESGLGHFSLRVH | 2.98 |
| AKAPDSPTRNDLESGLGHFSLRVH | 3.06 |
| AKAWDSPTRNDLESGLGHFSLRVH | 2.16 |
| AKAFDSPTRNDLESGLGHFSLRVH | 2.31 |
| AKASDSPTRNDLESGLGHFSLRVH | 3.1 |
| AKAHDSPTRNDLESGLGHFSLRVH | 3.36 |
| AKAGDSPTRNDLESGLGHFSLRVH | 2.86 |
| AKAAFSPTRNDLESGLGHFSLRVH | 2.17 |
| AKAALSPTRNDLESGLGHFSLRVH | 2.56 |
| AKAACSPTRNDLESGLGHFSLRVH | 2.34 |
| AKAAKSPTRNDLESGLGHFSLRVH | 3.19 |
| AKAAHSPTRNDLESGLGHFSLRVH | 2.63 |
| AKAAPSPTRNDLESGLGHFSLRVH | 2.48 |
| AKAAISPTRNDLESGLGHFSLRVH | 2.65 |
| AKAAQSPTRNDLESGLGHFSLRVH | 3.15 |
| AKAAASPTRNDLESGLGHFSLRVH | 2.84 |
| AKAAGSPTRNDLESGLGHFSLRVH | 2.9 |
| AKAAMSPTRNDLESGLGHFSLRVH | 3.06 |
| AKAAESPTRNDLESGLGHFSLRVH | 3.16 |

| Variant | protein stability index |
| --- | --- |
| AKAANSPTRNDLESGLGHFSLRVH | 2.81 |
| AKAARSPTRNDLESGLGHFSLRVH | 2.67 |
| AKQADSPTRNDLESGLGHFSLRVH | 3.03 |
| AKRADSPTRNDLESGLGHFSLRVH | 3.58 |
| AKEADSPTRNDLESGLGHFSLRVH | 3.8 |
| AKTADSPTRNDLESGLGHFSLRVH | 2.58 |
| AKDADSPTRNDLESGLGHFSLRVH | 3.44 |
| AKYADSPTRNDLESGLGHFSLRVH | 2.26 |
| AKCADSPTRNDLESGLGHFSLRVH | 2.73 |
| AKPADSPTRNDLESGLGHFSLRVH | 3.04 |
| AKNADSPTRNDLESGLGHFSLRVH | 2.97 |
| AKHADSPTRNDLESGLGHFSLRVH | 3 |
| AKVADSPTRNDLESGLGHFSLRVH | 2.28 |
| AKMADSPTRNDLESGLGHFSLRVH | 2.27 |
| AKFADSPTRNDLESGLGHFSLRVH | 2.77 |
| AKWADSPTRNDLESGLGHFSLRVH | 2.21 |
| AKKADSPTRNDLESGLGHFSLRVH | 3.23 |
| AKGADSPTRNDLESGLGHFSLRVH | 3.42 |
| AKLADSPTRNDLESGLGHFSLRVH | 2.6 |
| AKSADSPTRNDLESGLGHFSLRVH | 3.49 |
| AKIADSPTRNDLESGLGHFSLRVH | 2.69 |

Source: the supplement of paper PMC10567573
